Data taken from IntAct's records for PubMed 17965270.

B1: B-box zinc finger protein 21 (Arabidopsis thaliana (Mouse-ear cress)), Q9LQZ7 (parent)
chain: MKIRCDVCDKEEASVFCTADEASLCGGCDHQVHHANKLASKHLRFSLLYPSSSNTSSPLCDICQDKKALLFCQQDRAILCKDCDSSIHAANEHTKKHDRFLLTGVKLSATSSVYKPTSKSSSSSSSNQDFSVPGSSISNPPPLKKPLSAPPQSNKIQPFSKINGGDASVNQWGSTSTISEYLMDTLPGWHVEDFLDSSLPTYGFSKSGDDDGVLPYMEPEDDNNTKRNNNNNNNNNNNTVSLPSKNLGIWVPQIPQTLPSSYPNQYFSQDNNIQFGMYNKETSPEVVSFAPIQNMKQQGQNNKRWYDDGGFTVPQITPPPLSSNKKFRSFW
partner: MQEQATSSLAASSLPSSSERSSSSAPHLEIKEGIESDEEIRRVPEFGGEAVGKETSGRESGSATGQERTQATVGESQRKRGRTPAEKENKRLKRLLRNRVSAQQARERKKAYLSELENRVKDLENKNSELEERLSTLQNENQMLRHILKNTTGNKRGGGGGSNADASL

Variants of: B1
Conditions: with hy5_arath HY5, O24646

Effect of a mutation on the interaction, disrupting interaction:
D20A
D75A
D84A
